Earlier results as cited in article PMC2744109.
pKd: −log10 of the molar value. “And” between values parts separate entries of the source, which are not always exact repeats. Equal entries are not always repeated.

Assays:
[1] = biological target: Factor VIII (Homo sapiens) (UniProt P00451)
[2] = biological target: LRP1 CR7-CR8 (Homo sapiens) (UniProt Q07954); assay: ITC
[3] = biological target: LRP1 CR5-CR7 (Homo sapiens) (UniProt Q07954)

LRP1, sequence (Q07954 20-4544): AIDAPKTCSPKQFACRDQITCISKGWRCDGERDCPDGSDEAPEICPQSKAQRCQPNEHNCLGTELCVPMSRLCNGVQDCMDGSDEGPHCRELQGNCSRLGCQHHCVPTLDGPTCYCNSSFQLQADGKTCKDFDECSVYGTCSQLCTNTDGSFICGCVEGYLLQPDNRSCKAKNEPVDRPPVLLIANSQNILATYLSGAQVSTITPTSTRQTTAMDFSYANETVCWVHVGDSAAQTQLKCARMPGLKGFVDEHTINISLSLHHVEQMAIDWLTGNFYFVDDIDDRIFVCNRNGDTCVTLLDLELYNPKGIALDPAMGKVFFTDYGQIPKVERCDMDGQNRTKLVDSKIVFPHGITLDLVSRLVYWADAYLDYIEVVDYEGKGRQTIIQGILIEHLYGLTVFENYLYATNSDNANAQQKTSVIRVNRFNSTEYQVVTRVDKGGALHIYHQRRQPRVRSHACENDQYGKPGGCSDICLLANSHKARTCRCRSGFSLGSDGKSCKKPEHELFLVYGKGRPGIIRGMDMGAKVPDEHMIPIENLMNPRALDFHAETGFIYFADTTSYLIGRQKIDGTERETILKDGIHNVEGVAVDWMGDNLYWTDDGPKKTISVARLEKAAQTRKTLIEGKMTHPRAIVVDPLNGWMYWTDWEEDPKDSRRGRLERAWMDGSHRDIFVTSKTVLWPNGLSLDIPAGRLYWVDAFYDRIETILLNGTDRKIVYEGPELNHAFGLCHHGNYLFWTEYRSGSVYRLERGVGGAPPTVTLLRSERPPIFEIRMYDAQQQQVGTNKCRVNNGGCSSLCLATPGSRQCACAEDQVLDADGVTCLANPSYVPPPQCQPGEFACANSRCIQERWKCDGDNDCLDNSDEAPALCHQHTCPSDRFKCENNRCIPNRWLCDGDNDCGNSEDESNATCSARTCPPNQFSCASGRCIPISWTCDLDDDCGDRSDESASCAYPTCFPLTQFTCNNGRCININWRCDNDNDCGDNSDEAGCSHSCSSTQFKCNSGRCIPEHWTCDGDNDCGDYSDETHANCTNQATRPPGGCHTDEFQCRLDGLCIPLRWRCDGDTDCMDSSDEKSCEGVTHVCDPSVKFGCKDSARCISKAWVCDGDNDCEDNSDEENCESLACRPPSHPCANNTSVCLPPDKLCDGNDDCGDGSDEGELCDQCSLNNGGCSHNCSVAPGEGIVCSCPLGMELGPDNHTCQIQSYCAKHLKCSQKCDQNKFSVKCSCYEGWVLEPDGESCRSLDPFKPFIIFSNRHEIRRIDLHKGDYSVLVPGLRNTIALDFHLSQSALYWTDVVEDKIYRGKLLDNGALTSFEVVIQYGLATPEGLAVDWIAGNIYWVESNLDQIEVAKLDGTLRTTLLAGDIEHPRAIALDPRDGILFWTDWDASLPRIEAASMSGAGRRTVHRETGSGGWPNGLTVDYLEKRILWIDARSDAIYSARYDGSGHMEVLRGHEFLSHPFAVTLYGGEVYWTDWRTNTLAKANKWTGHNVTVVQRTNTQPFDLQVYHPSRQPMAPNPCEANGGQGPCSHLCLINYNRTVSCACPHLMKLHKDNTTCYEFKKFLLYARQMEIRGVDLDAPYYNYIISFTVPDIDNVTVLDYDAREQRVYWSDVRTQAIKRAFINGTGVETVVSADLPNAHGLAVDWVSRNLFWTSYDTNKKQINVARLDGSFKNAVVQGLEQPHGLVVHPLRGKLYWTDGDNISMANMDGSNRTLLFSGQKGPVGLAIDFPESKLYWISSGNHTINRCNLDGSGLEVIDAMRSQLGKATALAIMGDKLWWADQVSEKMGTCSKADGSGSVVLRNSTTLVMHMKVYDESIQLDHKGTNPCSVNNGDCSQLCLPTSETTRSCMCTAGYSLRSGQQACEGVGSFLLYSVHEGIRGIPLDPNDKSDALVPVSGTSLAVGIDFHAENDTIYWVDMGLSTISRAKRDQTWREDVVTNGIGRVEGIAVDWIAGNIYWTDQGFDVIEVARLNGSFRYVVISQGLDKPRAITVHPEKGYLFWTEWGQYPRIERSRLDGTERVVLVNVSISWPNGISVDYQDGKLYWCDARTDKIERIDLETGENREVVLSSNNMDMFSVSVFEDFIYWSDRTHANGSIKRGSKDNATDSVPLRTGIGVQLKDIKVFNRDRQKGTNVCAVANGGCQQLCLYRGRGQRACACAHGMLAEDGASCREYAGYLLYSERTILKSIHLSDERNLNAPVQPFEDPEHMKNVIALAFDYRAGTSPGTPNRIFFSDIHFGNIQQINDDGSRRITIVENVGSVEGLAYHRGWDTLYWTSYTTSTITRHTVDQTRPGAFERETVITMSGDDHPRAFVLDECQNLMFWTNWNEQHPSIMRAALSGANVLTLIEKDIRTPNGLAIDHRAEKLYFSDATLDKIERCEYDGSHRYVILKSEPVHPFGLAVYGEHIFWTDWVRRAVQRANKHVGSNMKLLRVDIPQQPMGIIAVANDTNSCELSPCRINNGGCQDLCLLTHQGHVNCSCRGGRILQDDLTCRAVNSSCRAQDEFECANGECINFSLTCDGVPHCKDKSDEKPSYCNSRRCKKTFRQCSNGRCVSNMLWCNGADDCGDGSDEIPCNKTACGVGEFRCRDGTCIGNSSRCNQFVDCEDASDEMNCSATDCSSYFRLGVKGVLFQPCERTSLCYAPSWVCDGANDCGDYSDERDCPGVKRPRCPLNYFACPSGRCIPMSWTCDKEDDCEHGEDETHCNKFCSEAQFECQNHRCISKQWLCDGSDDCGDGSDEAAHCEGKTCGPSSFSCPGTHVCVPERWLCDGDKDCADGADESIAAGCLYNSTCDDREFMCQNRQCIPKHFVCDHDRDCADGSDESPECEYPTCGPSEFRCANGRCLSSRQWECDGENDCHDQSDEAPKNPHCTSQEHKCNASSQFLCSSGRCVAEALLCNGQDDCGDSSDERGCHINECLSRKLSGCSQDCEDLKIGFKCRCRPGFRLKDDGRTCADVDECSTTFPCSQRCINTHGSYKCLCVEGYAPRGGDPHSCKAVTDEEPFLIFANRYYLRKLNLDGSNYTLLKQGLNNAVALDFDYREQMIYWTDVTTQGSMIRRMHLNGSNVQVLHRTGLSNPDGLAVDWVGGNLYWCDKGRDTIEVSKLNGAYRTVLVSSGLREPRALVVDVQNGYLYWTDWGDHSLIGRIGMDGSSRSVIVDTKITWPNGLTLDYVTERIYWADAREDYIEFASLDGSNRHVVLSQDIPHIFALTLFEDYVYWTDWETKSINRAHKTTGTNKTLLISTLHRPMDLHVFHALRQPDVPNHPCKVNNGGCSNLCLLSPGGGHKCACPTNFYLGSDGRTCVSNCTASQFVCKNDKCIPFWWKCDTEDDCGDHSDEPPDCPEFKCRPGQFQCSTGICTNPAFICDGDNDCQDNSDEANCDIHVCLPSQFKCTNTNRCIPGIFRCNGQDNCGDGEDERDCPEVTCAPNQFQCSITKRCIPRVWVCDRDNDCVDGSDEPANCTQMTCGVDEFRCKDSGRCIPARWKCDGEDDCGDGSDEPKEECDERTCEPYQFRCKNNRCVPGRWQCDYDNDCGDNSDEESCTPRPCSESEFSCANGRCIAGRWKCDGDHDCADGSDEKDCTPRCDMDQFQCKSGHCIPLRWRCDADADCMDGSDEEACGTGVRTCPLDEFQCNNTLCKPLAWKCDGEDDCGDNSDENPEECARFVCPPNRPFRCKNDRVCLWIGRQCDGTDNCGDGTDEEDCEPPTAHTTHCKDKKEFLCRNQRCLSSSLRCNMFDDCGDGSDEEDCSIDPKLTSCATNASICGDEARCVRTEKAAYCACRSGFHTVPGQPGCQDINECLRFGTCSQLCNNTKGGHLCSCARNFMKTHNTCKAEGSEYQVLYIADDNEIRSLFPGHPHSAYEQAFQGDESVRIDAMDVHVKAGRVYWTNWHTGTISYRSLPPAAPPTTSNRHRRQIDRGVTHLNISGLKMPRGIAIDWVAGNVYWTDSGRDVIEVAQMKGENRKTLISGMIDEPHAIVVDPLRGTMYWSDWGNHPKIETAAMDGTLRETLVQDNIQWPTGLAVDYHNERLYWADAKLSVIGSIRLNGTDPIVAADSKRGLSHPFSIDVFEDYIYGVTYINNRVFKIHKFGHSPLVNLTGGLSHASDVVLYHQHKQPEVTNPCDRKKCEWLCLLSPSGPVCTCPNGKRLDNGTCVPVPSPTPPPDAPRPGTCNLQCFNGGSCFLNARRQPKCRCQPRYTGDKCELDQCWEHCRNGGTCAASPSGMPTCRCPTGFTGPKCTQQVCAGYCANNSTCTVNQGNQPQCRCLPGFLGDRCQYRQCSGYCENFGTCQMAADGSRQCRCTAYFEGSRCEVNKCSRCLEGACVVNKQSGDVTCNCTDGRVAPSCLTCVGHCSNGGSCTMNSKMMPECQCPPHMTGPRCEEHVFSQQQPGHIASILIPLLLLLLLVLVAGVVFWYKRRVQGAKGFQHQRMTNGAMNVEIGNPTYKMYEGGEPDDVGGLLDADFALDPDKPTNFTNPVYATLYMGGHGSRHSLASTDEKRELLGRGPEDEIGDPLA
UniProt P00451, sequence (P00451 760-1332): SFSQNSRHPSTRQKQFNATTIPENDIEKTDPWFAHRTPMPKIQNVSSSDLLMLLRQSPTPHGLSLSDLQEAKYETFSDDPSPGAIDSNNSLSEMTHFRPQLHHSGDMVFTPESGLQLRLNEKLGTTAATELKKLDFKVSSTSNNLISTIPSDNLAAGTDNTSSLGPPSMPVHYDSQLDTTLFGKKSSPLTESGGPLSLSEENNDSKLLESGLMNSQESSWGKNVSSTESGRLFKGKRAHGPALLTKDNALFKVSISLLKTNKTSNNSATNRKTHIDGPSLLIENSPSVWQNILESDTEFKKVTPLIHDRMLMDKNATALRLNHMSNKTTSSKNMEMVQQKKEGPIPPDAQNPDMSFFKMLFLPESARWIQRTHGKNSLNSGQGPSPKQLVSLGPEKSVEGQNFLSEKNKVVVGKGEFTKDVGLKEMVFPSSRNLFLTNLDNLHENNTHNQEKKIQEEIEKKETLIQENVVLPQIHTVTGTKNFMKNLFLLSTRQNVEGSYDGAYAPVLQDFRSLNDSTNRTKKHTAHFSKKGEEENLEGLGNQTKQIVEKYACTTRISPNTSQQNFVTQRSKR

pKd [1]	pKd [2]	pKd [3]	Substance
6.94 and 7.22	–	–	LRP1 (from UniProt Q07954)
–	6.00	–	RAP D3 (from UniProt P30533)
–	6.00	8.80	RAP (from UniProt P30533)
